Experiment: label from the status in PepcDB records

| Sequence | protein production |
| --- | --- |
| MSLLTEVETYVLSIIPSGPLKAEIAQKLEDVFAGKNTDLEALMEWLKTRPILSPLTKGILGFVFTLTVPSERGLQRRRFVQNALNGNGDPNNMDRAVKLYKKLKREITFHGAKEVALSYSTGALASCMGLIYNRMGTVTTEVAFGLVCATCEQIADSQHRSHRQMATITNPLIRHENRMVLASTTAKAMEQMAGSSEQAAEAMEVANQARQMVQAMRTIGTHPNSSAGLRDNLLENLQAYQKRMGVQMQRFK | not failed |
| MSLMLSHNPIVEPFALAHATIVTGDKAGTILRNMTIVVGADGRIEQVAPSIETSIPAEYHYLDGTGKIVMPGLINAHTHLFSQGKPLNPKLATPKGQRMVATFAHSPLGKPYMAATVKHNATTLLESGVTTIRTLGDVGYEVVTLRDQIDAGQILGPRILASGPLMAIPEGHGAPLIALTSGTPEEARTAVAQNLKAGVNAIKIAATGGVTDAQEIGEAGSPQMSVEQMRAICDEAHQYGVIVGAHAQSPEGVRRSLLAGVDTIEHGSVLDDELIGMFRHNPNALRGYSALIPTLSAGLPLTLLGQDVTGITDIQLENSKNVVGGMVSGARQAHEAGLMIGVGTDTGMTFVPQYATWRELELLVAYAGFSPAEALHAATAVNASILGVDAETGSLEVGKSADLLVLNANPLDDLRALEHPALVIAAGHPVWRPGPKRFADIDALLDEAYAEGHHHHHH | not failed |
| MSLNGSRRIPQPIRWAMVGGGSQSQIGYIHRCAALRDNTFVLVAGAFDIDPIRGSAFGEQLGVDSERCYADYLSMFEQEARRADGIQAVSIATPNGTHYSITKAALEAGLHVVCEKPLCFTVEQAENLRELSHKHNRIVGVTYGYAGHQLIEQAREMIAAGELGDVRMVHMQFAHGFHSAPVEAQSQATQWRVDPRQAGPSYVLGDVGTHPLYLSEVMLPDLKIKRLMCSRQSFVASRAPLEDNAYTLMEYEGGAMGMVWSSAVNAGSMHGQKIRVIGSRASLEWWDERPNQLSFEVQGQPAQILERGMGYLHPNALIDDRIGGGHPEGLFEAWANLYYRFALAMDATDRSDTQALSAVRYPGIDAGVEGVRWVERCVLSADNDSIWVAYEGHHHHHH | not failed |
| MSLNYKNYTVMLVDDEQPILNSLKRLIKRLGCNIITFTSPLDALEALKGTSVQLVISDMRMPEMGGEVFLEQVAKSYPDIERVVISGYADAQATIDAVNRGKISRFLLKPWEDEDVFKVVEKGLQLAFLREENLRLQEETEAKNKQEGHHHHHH | not failed |
| MSLPANQIKEPGKQFQPAKSLKEPSQESLPGNLLKEPSQESRILCPDPDIVVELNVGGQFYTTTMGTLMKHPGSKFSEILSRSAKHYKDAQGRFFIDRPGTYFGPLLDYLRTGQVPTEYIPEVYQEAKFYQIHPLVKLLEDKPQIFGEQVARMQFLMGVPNYRENLEVLLHLARAEAVAMRSSKVVVCVVRTEEDDAKCTEPLHILEAKKTPVVKFGPWKAGPVTEDFVYCLEKDIRAKGYTVASQRYHLSRDPYTCFWILVFTWW | failed |
| MSLPRTLAFVSTLLLAAFCALPAQADSFIMRLLNKPVPGGVAVVDLGEEGPPPRAFYQGKPVLVVREEGRRWIAVVGIPLSTKPGPQKLEVRAATGNHEERFSVGSKHYREQRITLKNKRQVNPLPEDLKRIERELAEQTAAYRRFSPGLPSNLMLDKPVDGPLSSPFGLRRFFNGEERNPHSGLDFAVPAGTPIKAPAAGKVILIGDYFFNGKTVFVDHGQGFISMFCHLSKIDVKLGQQVPRGGVLGKVGATGRATGPHMHWNVSLNDARVDPAIFIGAFQPEGHHHHHH | not failed |
| MSLPSSRTRGRPARLDRARTVQTALDLLNESGLDTLTMRRLAQAMDVQAGALYRYFAAKQDLLTAMAEHMVDGVADAAGATGDGDWSERTARLARALRAALLAHRDGARVFAGTHATGPNTLRFADGLVGVLREAGFGDGDAARALYSVANFTVGHTLEEQAALTPGGGGPLDEATLREAVAAGTYPHLAATLPVLTSTDFTAHFEFGLRLLLDGLRAVRQ | not failed |
| MSLQESSLVLSNGLGFVDTPYKAGTLEVDDTEDLIINCDEVDCTTFVEYALAMALCPQQGDEMQEGDFARNLQRIRYRDGKIDGYTSRLHYISDWINNAVRQGLLEDVTAAYSPFKQKLSLSYMSTHPELYKSLKNSPENVAQMAKYEKALSGKEVHYLPKDKLEPDGLPWIKNGDIIALTTNTPGLDVSHMGIAIYIKGQLHLLHASSKEGKVVVGKTALSQMLKDRKSLTGIRVLRMKKEGHHHHHH | not failed |
| MSLQWECWPSLPCWRCFAASGRITLSIKRFTQNSRRHDMKITKINAIPLSYRLPEGKTVTMGVGSTIKRDAIIIRVETSEGITGYGEAHPGRSPGAITSLIHNTIAPMLIGMKATDCVGAWQRVHRMQLSSHGLGAGAALAISGIDMALWDIRGKAANMPLYELLGGSKRRIPAYAGGIALGYQPKESLAEEAQEYIARGYKALKLRIGDAARVDIERVRHVRKVLGDEVDILTDANTAYTMADARRVLPVLAEIQAGWLEEPFACNDFASYREVAKITPLVPIAAGENHYTRFEFGQMLDAGAVQVWQPDLSKCGGITEGIRIAAMASAYRIPINAHSSATGLNHAATIHFLAATENAGYFEACVSKFNPFRDMFGTSFEIGADGCVEPPDAPGLGIEVDESIFEKYPAVDGPGYVVKFEGHHHHHH | not failed |
| MSLRDFGLLVLICLIWAGSNIISKLVVAHWGVPPLYYAAVRFALVAALTLPWLLPAPRPTWRMVLVGLLMGGGNFALLFMGFQTASPSAASVVIQVGVPFTTLLSVLILGEKIRWRRGLGIALTLLGAVVVMWSPKGIELSAGLWLIVAAAFTGSLGAVMMKQIEGVKPLQFQAWVGFSSVWPLAAMSAFMEPGQVAAGFAAGWPFVAAVVFSAVVVSILAHTAYYGLIQRYEANLIAPLTLMTPLFTIGMGVVVTNDHFDLRMGIGAALALLGVLIIALRRNQVMPLLTSLRSRLQ | failed |
| MSLRDTQTQLRNEMIYSVFVRNYSEAGNFAGVTADLQRIKDLGTDILWLLPINPIGEVNRKGTLGSPYAIKDYRGINPEYGTLADFKALTDRAHELGMKVMLDIVYNHTSPDSVLATEHPEWFYHDADGQLTNKVGDWSDVKDLDYGHHELWQYQIDTLLYWSQFVDGYRCDVAPLVPLDFWLEARKQVNAKYPETLWLAESAGSGFIEELRSQGYTGLSDSELYQAFDMTYDYDVFGDFKDYWQGRSTVERYVDLLQRQDATFPGNYVKMRFLENHDNARMMSLMHSKAEAVNNLTWIFMQRGIPLIYNGQEFLAEHQPSLFDRDTMVADRHGDVTPLIQKLVTIKQLPLLRAADYQLAVVEEGIVKITYRAAGEALTAWIPLKGQVTAVATKLAAGSYQNLLTDGPTEVVDGKLTVDGQPVLIKYVTNTAVTKVADQSNEGHHHHHH | not failed |
| MSLRHLYIEEGRTVCASATSRNRRPTSESPHSDDVVVVEGMLRGRPETRVHAMFDGFQGRHSAMWLAQNVMNYLNDLRDVNEEEITRQFERMDGDLRAANLPGGSSALIIFVRYEKKPTEARVVGRQIVPEGAKEFTSVAEALGGPLMPVVAMNFRRDPRAAKGIYTIHVASLGNSRCVLKSGRTAIHLSTPHTASSHKERHRVQAAGGVFTTVNGELLLGGVVPMTRAFGSFDFKKGGQGKLQQDLVSAVPDVTTFFAYPGDDIVAGTAGAFAHFRSHAAIAAAIALYPVSPETVLDAAKAMVVNAKRRKVTKNISTFVRHLPESRTRSQKMLEGTSGENGEEDFSIDRTNELTQALQAGFFSFLLYYEGHHHHHH | not failed |
| MSLRKEPYLLVFGASVVDVFGFSKASYRPYNSTPGHVKISFGGVCRNIAENMARVGVNTNFMSILGNDEHGKSIVEHSKKIGYHMDDSMVIEGGSTPTYLAILDENGEMVSAIADMKSIGAMNTDFIDSKREIFENAEYTVLDSDNPEIMEYLLKNFKDKTNFILDPVSAEKASWVKHLIKDFHTIKPNRHEAEILAGFPITDTDDLIKASNYFLGLGIKKVFISLDADGIFYNDGVSCGKIKATEVDVKNVTGAGDSFVAGLGYGYMNKMPIEDIVKFAMTMSNITISHEETIHPDMALDTVLAKLEKTTWEEEKYDLNEGHHHHHH | not failed |
| MSLRNPVLAGLSVEEIREAVSGEYLIEPREEKMVEQVVIGAMSPQSALRYLREARNAALVTGGDRSDLLLTALEMPNVRCLILTGNLEPVQLVLTKAEERGVPVILTGHDTLTAVSRLESVFGRTRIRGEPKVGIMRELFESEGHHHHHH | not failed |
| MSLRQVIPIPSPPAKYLLPEVTVLDYGKKCVVIDLDETLVHSSFKPISNADFIVPVEIDGTIHQVYVLKRPHVDEFLQRMGQLFECVLFTASLAKYADPVADLLDRWGVFRARLFRESCVFHRGNYVKDLSRLGRELSKVIIVDNSPASYIFHPENAVPVQSWFDDMTDTELLDLIPFFEGLSREDDEGHHHHHH | not failed |
| MSLSAPRITRVETAAIRAVGPSVLVRVWAGDEHGLGECYPSAPAAGIHHIVMNMEEQLLGEDPRDVERLYEKMRRWNIFTGGQAGAVITALSGIETALWDLAGKLQGVPVYRLLGGAFRRRVRLYADCNAGTVDAAAHHIEGGLFVEGSNEEYIAVAREAVERGFDAIKLDVDDITGPLHRDFWNGAISPREHEAMVARVAAVREAVGPEVEVAIDMHGRFDIPSSIRFARAMEPFGLLWLEEPTPPENLDALAEVRRSTSTPICAGENVYTRFDFRELFAKRAVDYVMPDVAKCGGLAEAKRIANLAELDYIPFAPHNVSSPVGTVAAAHVCAAVSNFAVLEWHAIDMPHWEDFVRYPGGPVIREGHIELTEEPGLGLELDEEAAFEHRHEKGGVPFFGRTEGHHHHHH | not failed |
| MSLSDESFEFDVSVIGLGAMGTIMAQVLLKQGKRVAIWNRSPGKAAALVAAGAHLCESVKAALSASPATIFVLLDNHATHEVLGMPGVARALAHRTIVDYTTNAQDEGLALQGLVNQAGGHYVKGMIVAYPRNVGHRESHSIHTGDREAFEQHRALLEGLAGHTVFLPWDEALAFATVLHAHAFAAMVTFFEAVGAGDRFGLPVSKTARLLLETSRFFVADALEEAVRRLETQDFKGDQARLDVHADAFAHIAQSLHAQGVWTPVFDAVCQVVQRAAAMGYGDQDIAATTKSFAREQEEGHHHHHH | not failed |
| MSLSDWHLAVKLADQPLAPKSILQLPETELGEYSLGGYSISFLKQLIAGKLQESVPDPELIDLIYCGRKLKDDQTLDFYGIQPGSTVHVLRKSW | not failed |
| MSLSEIKHWVFDMDGTLTIAVHDFAAIREALSIPAEDDILTHLAALPADESAAKHAWLLEHERDLAQGSRPAPGAVELVRELAGRGYRLGILTRNARELAHVTLEAIGLADCFAEADVLGRDEAPPKPHPGGLLKLAEAWDVSPSRMVMVGDYRFDLDCGRAAGTRTVLVNLPDNPWPELTDWHARDCAQLRDLLSAEGHHHHHH | not failed |
| MSLSEIKRKFDAVSGKYDEQRRKFIPCFDDFYGVSVSIASVDTENPDILDLGAGTGLLSAFLMEKYPEATFTLVDMSEKMLEIAKNRFRGNLKVKYIEADYSKYDFEEKYDMVVSALSIHHLEDEDKKELYKRSYSILKESGIFINADLVHGETAFIENLNKTIWRQYVENSGLTEEEIAAGYERSKLDKDIEMNQQLNWLKEAGFRDVSCIYKYYQFAVMFGRKTEGHHHHHH | not failed |
| MSLSEPAWSLHSRLKEDTIDIGDLPLSKVLVIKDANYPWLLLVPRRPDAVEIIDLDEVQQAQLMTEISRVSRALKEITKCDKLNIAALGNLVPQLHVHIIARRTGDAAWPRPVWGVMQPLAHDATEVQNFISALRRKIWLGEGHHHHHH | not failed |
| MSLSFMIGYSWTQTEPGQVNHILDQFLSSMVREAGAVNYFVLPFPFSEDRSQIDIYRDLIRSGNVDGFVLSSINYNDPRVQFLLKQKFPFVAFGRSNPDWDFAWVDIDGTAGTRQAVEYLIGRGHRRIAILAWPEDSRVGNDRLQGYLEAMQTAQLPIETGYILRGEGTFEVGRAMTLHLLDLSPERRPTAIMTLNDTMAIGAMAAARERGLTIGTDLAIIGFDDAPMVQYLFPPLSSVRQPIAEAGRKCIELLVAIVEGREPEQKHILLQPSLIIRASEGLITITTDPNSSSVDKLAAALEHHHHHH | not failed |
